Patent publication US11479791B2, “Tools and methods for expression of membrane proteins” (VIB VZW, priority 2012, dated 2022)

What was measured:
[1] = biological target: T1, human CXCR4 receptor (hCXCR4Rho1D4) (Homo sapiens, UniProt P61073); experiment: hCXCR4-Nb co-expression in P. pastoris GS115; anti-Rho1D4 immunoblot of membrane protein, quantified by Odyssey software; assay type: cell-based; settings: for change of hCXCR4 receptor expression upon Nb co-expression (in words): immunoblot, versus GS115hCXCR4 clone without Nb co-expression
T1 construct: expressed in transfected cells; host or cells: Pichia pastoris GS115
Procedure: An hCXCR4 expressing Pichia clone was transformed with the four linearized Nanobody expressing vectors as described before. Twenty-four positive clones (six per Nb) were analyzed for protein expression. Growth conditions and membrane protein sample preparations were done as previously described. Equal amounts of total membrane protein (determined by a BCA assay) of induced P. pastoris GS115 clones, expressing only the human CXCR4 receptor, or in combination with one of the anti-hCXCR4 Nanobodies, were run on a 12% SDS-PAGE gel and blotted on a nitrocellulose membrane. The blot was developed with a primary mouse anti-Rho1D4 monoclonal antibody and a secondary Dylight (800 nm) goat anti-mouse IgG on an LI-COR odyssey system. […] The quantification was performed by the Odyssey software by measuring relative fluorescent signals (Table 3).
An hCXCR4 expressing Pichia clone was transformed with the linearized Nanobody expressing vector as described before. Three positive clones were analyzed for protein expression. Growth conditions and membrane protein sample preparations were done as previously described. Equal amounts of total membrane protein (determined by a BCA assay) of induced P. pastoris GS115 clones, expressing only the human CXCR4 receptor, or in combination with a anti-hCXCR4 Nanobody (NbCA4142), or in combination with the negative control Nanobody (NbCA4910), were run on a 12% SDS-PAGE gel and blotted on a nitrocellulose membrane. The blot was developed with a primary mouse anti-Rho1D4 monoclonal antibody and a secondary Dylight (800 nm) goat anti-mouse IgG on an LI-COR odyssey system. For the hCXCR4-specific Nb co-expressing clone we detect more of the anti-Rho1D4 immunoreactive membrane protein band compared to the GS115hCXCR4 clone without Nb co-expression. […] Exact quantification has been calculated by the Odyssey software by measuring relative fluorescent signals (Table 4). It can, thus, be concluded that the increase in receptor expression can be attributed to the Nanobody-specific interaction with the receptor.
Stable positive clones were typically grown in 2 ml (24-well format) or 12.5 ml (shake-flasks) BMGY medium for 48 hours (250 rpm; 28° C.). The cells were harvested by centrifugation and resuspended in the same amount of BMMY medium (1% methanol; 0.5% of methanol was added after 12 hours to maintain induction). After 24 hours the cells were harvested for membrane protein preparations (analysis of hCXCR4 expression and intracellular Nb retention) and the supernatant was used for analysis of extracellular protein expression on SDS-PAGE (Nanobodies).
The cell pellet corresponding to 1 ml of saturated yeast culture (OD600 60-80) was suspended in 1 ml of PBS+Protease inhibitor (Roche). Together with 200 μl of acid washed glass beads, the samples were vortexed heavily at 4° C. for 2×5 minutes. Glass beads, cell debris and intact cells were removed by centrifugation at 2000 rpm (5 min; 4° C.). The supernatant was kept as such or was centrifuged for 45 minutes at 13,000 rpm in a desktop centrifuge at 4° C. The supernatant, cytosolic fraction was discarded and the pellet fraction was re-dissolved in the same amount of fresh PBS+PI by sonication until a homogenous sample was obtained.
Total membrane protein concentration was determined by the BCA protein assay kit (Pierce, Thermo Scientific).
Protein samples were analyzed by SDS-poly-acrylamide gel electrophoresis, according to the Laemmli (Laemmli et al., 1970, Nature, 227:680) or the Tricine method (Schägger et al., 2006, Nat. Protoc. 1:16-22). Before loading on gel, the samples were mixed with 5× Laemmli (60 mM Tris-HCl pH 6.8; 2% SDS, 10% glycerol, 5% β-ME; 0.01% bromophenol blue) and heated for 10 minutes at 95° C. (only the ECM samples, not the membrane protein preparations). Prestained protein markers in the range of 10-250 kDa, Precision Plus protein standards (Bio-Rad), were used as molecular standards. […]

[2] = biological target: T2, hCXCR4 receptor (Homo sapiens, UniProt P61073); experiment: Purification of hCXCR4-Nanobody complex from co-expressing P. pastoris clone by Ni2+ affinity chromatography; assay type: binding; settings: DDM-solubilized membrane protein of co-expressing clone; FIG. 9
T2 construct: made in house; host or cells: Pichia pastoris GS115 co-expressing clone
Source text: In this way we only purify the receptor fraction that is in a well-folded state, because the Nanobody can only bind the receptor when it is in its native fold. This step strongly increases homogeneity in a membrane protein sample which is useful, for example, for crystallization. […] In case an even more pure sample is required, an extra step of affinity chromatography can be performed using an anti-Rho1D4 affinity matrix, which targets the hCXCR4 part of the complex.
The cell pellet corresponding to 1 L of saturated yeast culture (OD600 60-80) was resuspended in a 1:1 (w/v) ratio of buffer A (1×PBS+Protease inhibitors). Together with 190 g of glass beads, the suspension was brought in the precooled DYNO®-MILL mixing chamber and cells were crushed for 5 minutes. The lysate was centrifuged for 10 minutes at 2,000 rpm (Sorvall F10S-6X500Y rotor) at 4° C. to remove cell debris and intact cells. The supernatant was centrifuged for an hour at 13,000 rpm (Sorvall F10S-6X500Y rotor) at 4° C. to pellet the membrane proteins. The pellet was resuspended in 10 ml buffer A with 1% DDM (n-Dodecyl β-D-maltoside) and put on a rotor for three hours at 4° C. to allow membrane protein solubilization. After solubilization, the solution is centrifuged for one hour at 13,000 rpm (Sorvall SS-34 rotor) at 4° C. to remove unsolubilized membrane proteins. […]

[3] = biological target: T3, β2-adrenergic receptor (Mesocricetus auratus, UniProt P04274); experiment: Purification of β2AR-Nanobody complex from HEK293S cells by Ni2+ affinity chromatography; assay type: binding; settings: upon the addition of the antagonist alprenolol hydrochloride; FIG. 10
T3 construct: expressed in transfected cells
Source text: The same technique as in Example 4 can be used using a Nanobody that binds an intracellular epitope of the membrane protein. Nanobody CA2780 (amino acid sequence: SEQ ID NO:5; Nucleotide sequence: SEQ ID NO:23) is an example of a Nanobody that binds an intracellular epitope of the β2-adrenergic receptor and that stabilizes the receptor in its active conformation (Rasmussen et al., 2011, Nature 469: 175). We transformed a HEK293 cell line that has a stable inducible β2AR expression with the pCAGGSNbCA2780-plasmid (see Material and Methods section) for transient expression. This Nanobody is not fused to a secretion signal and, therefore, resides in the cytosol upon expression, to allow interaction with the intracellular side of the membrane protein. Nanobody CA2780 has a hexaHis-tag and can, therefore, be purified using Ni^2+ affinity chromatography. […] In this way we strongly enrich for the receptor fraction that is in a well-folded state, because the Nanobody can only bind the receptor when it is in its native fold. This step strongly increases homogeneity in a membrane protein sample going to f.e. crystallization trials. If necessary, a subsequent purification using anti-Rho1D4 affinity chromatography can further enrich the sample for the receptor. […]

[4] = Table 3, anti-Rho1D4 immunoreactive hCXCR4 band, average of two independent experiments
[5] = Table 3, corrected for GS115 negative control
[6] = Table 4, co-expressing clone cl1
[7] = Table 4, co-expressing clone cl2
[8] = Table 4, co-expressing clone cl3

T1 sequence (P61073 with tags, fused parts or gaps isoform P61073-2): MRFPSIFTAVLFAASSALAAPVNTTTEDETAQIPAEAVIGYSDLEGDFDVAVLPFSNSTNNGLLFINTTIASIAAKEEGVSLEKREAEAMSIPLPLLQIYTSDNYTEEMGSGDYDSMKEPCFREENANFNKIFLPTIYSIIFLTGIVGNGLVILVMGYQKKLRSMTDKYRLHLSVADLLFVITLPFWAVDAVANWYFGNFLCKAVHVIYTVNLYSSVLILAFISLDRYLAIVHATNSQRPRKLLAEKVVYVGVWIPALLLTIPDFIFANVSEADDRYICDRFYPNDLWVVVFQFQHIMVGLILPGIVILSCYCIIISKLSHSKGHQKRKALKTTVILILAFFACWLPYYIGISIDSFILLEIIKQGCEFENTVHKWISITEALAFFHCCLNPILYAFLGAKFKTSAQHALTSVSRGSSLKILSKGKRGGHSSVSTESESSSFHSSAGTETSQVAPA
T3 sequence (P04274 whole entry): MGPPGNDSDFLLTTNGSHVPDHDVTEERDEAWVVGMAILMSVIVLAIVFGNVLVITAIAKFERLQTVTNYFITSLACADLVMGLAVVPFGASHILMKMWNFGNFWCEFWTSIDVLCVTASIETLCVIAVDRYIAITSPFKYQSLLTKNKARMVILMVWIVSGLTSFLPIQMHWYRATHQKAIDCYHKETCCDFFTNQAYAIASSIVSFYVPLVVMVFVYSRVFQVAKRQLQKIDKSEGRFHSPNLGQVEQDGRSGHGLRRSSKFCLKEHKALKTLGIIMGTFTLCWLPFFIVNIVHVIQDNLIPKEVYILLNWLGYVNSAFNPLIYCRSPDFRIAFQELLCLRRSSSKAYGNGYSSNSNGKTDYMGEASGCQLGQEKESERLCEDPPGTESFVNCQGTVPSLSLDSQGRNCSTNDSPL
T2 sequence (P61073 with tags, fused parts or gaps isoform P61073-2): as the sequence (P61073 with tags, fused parts or gaps isoform P61073-2) above

| Fluorescent units [1, 4] [fluorescent units] | Blank corrected [1, 5] [fluorescent units] | change of hCXCR4 receptor expression upon Nb co-expression (in words) [1] | Molecule | also measured |
| --- | --- | --- | --- | --- |
| 41.06 | 37.72 |  | NbCA4143: Nanobody directed against the extracellular side of the human CXCR4 receptor, SEQ ID NO:3, His6 tag (protein, listed as Lama glama, His6 tag) VHH: QVQLQESGGGLVQPGGSLRLSCAASGFTFSSYAMSWVRQAPGKGLEWVSTINSGGRSANYADSVKGRLTISRDNAKNTLHLQMNSLKPEDTALYYCARPRSVSRNYVPLGYDYLGQGTQVTVSSHHHHHH |  |
| 35.81 | 32.47 | more | NbCA4142: Nanobody directed against the extracellular side of the human CXCR4 receptor, SEQ ID NO:2, His6 tag (protein, listed as Lama glama, His6 tag) VHH: QVQLQESGGGLVRTGGSLRLSCAGSGSFFSINPMGWYRQAPGQQRELVATITGSGSTNYADSVKGRFTISRDNAKNTLYLQMNSLKPEDTAVYYCNAGYFDRIGRRYDRWGQGTQVTVSSHHHHHH | Fluorescent units ([1]; Table 4, control experiment): 32.76 fluorescent units; Blank corrected ([1]; Table 4, control experiment, corrected for GS115 negative control): 30.35 fluorescent units; retention of the receptor on Ni2+ affinity column via hexaHis-tagged Nanobody [2]: strong retention of the receptor |
| 39.95 | 36.61 |  | NbCA4140: Nanobody directed against the extracellular side of the human CXCR4 receptor, SEQ ID NO:1, His6 tag (protein, listed as Lama glama, His6 tag) VHH: QVQLQESGGGLVQPGGSLRLSCAASGSIFSINAMGWYRQAPGKQRELVAAITSGGSTNYADSVKGRFTISRDNAENTVYLQMNNLKPEDTAVYSCNAEGTSGSSRYRRRYEYWGKGTQVTVSSHHHHHH |  |
|  |  |  | NbCA2780: Nanobody that binds an intracellular epitope of the β2-adrenergic receptor and stabilizes its active conformation (Rasmussen et al., 2011), SEQ ID NO:5 (protein, listed as Lama glama) VHH: MEVQLQESGGGLVQAGGSLRLSCAASGSIFSINTMGWYRQAPGKQRELVAAIHSGGSTNYANSVKGRFTISRDNAANTVYLQMNSLKPEDTAVYYCNVKDYGAVLYEYDYWGQGTQVTVSSAAAHHHHHH | interaction between receptor and Nanobody (complex purified by Ni2+ affinity chromatography) [3]: strong interaction |
|  |  | no increase in the receptor expression | NbCA4910: negative control Nanobody which does not recognize the hCXCR4, SEQ ID NO:6 (protein, listed as Lama glama) VHH: QVQLVESGGGLVQPGGSLRLSCAASGSFRSIVSMAWYRQAPGKQRELVASSNSGGSTNYADSVKGRFTISRDNAKNTVYLQMNSLKPEDTAVYWCNVQNRLPGFDAFSGRSIAETYWGQGTQVTVSSAAAHHHHHH | Blank corrected [1, 6]: 6.56 fluorescent units; Fluorescent units [1, 6]: 8.97 fluorescent units; Blank corrected [1, 7]: 17.89 fluorescent units; Fluorescent units [1, 7]: 20.30 fluorescent units; Blank corrected [1, 8]: 19.49 fluorescent units; Fluorescent units [1, 8]: 21.90 fluorescent units |
| 21.59 | 18.25 | slight increase | NbCA4500: Nanobody directed against the extracellular side of the human CXCR4 receptor, SEQ ID NO:4, His6 tag (protein, listed as Lama glama, His6 tag) VHH: QVQLQESGGGLVQAGGSLRLSCAASGSTSGIIAMGWYRQAPGKQRELVARISSGSSTNYADSVKGRFTVSRDNAKNTVYLQMNSLKPEDTAVYYCNAVRRGYRNDYNSWGQGTQVTVSSHHHHHH |  |
